According to patent publication US7666644B2, “Glyphosate-N-acetyltransferase (GAT) genes” (Verdia, Inc., priority 2004, dated 2010):

Columns and labels:
[1] = system: N[C@@H](CC(=O)O)C(=O)O; experiment: purified protein, by the assay type; conditions: other: 25 mM Hepes, pH 6.8, 10% ethylene glycol
Protocol: (§1) GAT activity of several GAT polypeptides of the present invention was evaluated with respect to a number of amino acid substrates. The GAT polypeptide, AcCoA and amino substrate were incubated in 25 mM Hepes, pH 6.8, 10% ethylene glycol in the wells of a 96-well polystyrene plate. After 30 minutes, the reactions were stopped by the addition of 30 μl of 10 mM 5,5′-dithiobis-2-nitrobenzoate (DTNB) in 500 mM Tris, pH 7.5. After 2 minutes, absorbance was read at 412 nm in a Spectramax Plus plate reader (Molecular Devices, Sunnyvale, Calif.).

[2] = system: N[C@@H](CO)C(=O)O; experiment: purified protein, by the assay type; conditions: other: 25 mM Hepes, pH 6.8, 10% ethylene glycol
Protocol: as §1

[3] = system: O=C(O)CNCP(=O)(O)O; experiment: purified protein, by the assay type; conditions: other: 25 mM Hepes, pH 6.8, 10% ethylene glycol
Protocol: as §1

[4] = Kinetic parameters by continuous spectrophotometric assay in the presence of 20 mM KCl, protein quantified via UV absorbance; assay type: biochemical; conditions: templates GAT 24-5H5 or GAT 25-8H7
Protocol: The further evolved gat genes were first selected for growth in E. coli in minimal M9 medium as described in Example 8, except that 5 mM rather than 1 mM glyphosate was used in the selection. Proteins were purified as described in Example 6 above.
Protein concentrations were determined by UV absorbance at 205 nm. The extinction coefficient was determined by the method described by Scopes (1994; Protein Purification, Principles and Practice, Springer, NewYork) according to the formula E (mg ml^−1 cm^−1)=27+120(A280/A205)=30.5. Prior to quantitation by UV absorbance the protein solution was buffer-exchanged into 50 mM Na2SO4 using a NAP-5 column (Amersham-Pharmacia Biotech).
Error bars represent the standard deviation of multiple assays, where available.

[5] = assay type: physicochemical; conditions: buffer, pH 7.2
Protocol: The half lives of several GAT polypeptides were also measured at 37.5° C. according to the following procedure. GAT polypeptides 401 (SEQ ID NO: 6), 17-15H3 (SEQ ID NO: 601), 20-8H12 (SEQ ID NO: 739), 22-13B12 (SEQ ID NO: 781), 22-15B4 (SEQ ID NO: 946) and 22-18C5 (SEQ ID NO: 795) were incubated in a matrix of 25 mM Hepes, pH 7.2, 10 mM KCl and 10% methanol (“HKM”). At various timepoints, aliquots were withdrawn and assayed in triplicate at 22° C. using the continuous spectrophotometric assay described in Example 7 using saturating concentrations of glyphosate (20 mM for 401, 5 mM for the rest) and AcCoA (167 uM). The standard error at each time point averaged about 2.9%. GAT activity was plotted as a function of incubation time and the data was fitted to a curve for exponential decay (y=e^−x), where y is enzyme activity and x is time in hours, from which half life was calculated.

[6] = system: tobacco plants; experiment: Herbicide spray tests of GAT expressing tobacco plants; assay type: in vivo, Nicotiana tabacum
Protocol: Tobacco shoots generated as described in EXAMPLE 9 were excised from the explants and transferred to basal root induction (BRI) medium composed of half-strength Murashige and Skoog (MS) medium, pH 5.7, with 1.5% sucrose, 0.3% Gelrite, 0-200 uM glyphosate and 400 ug/ml Timentin. Rooted plants and axillary shoots were clonally propagated by cutting the stem and transferring it to fresh BRI medium until the desired number of clones was obtained. Rooted plants were carefully removed from the solid medium. Prior to placing the plants into small pots of soil, the roots were washed to remove any remaining Gelrite. A protective plastic cover was kept over the plants for at least one week until the plants were well established.
To determine if GAT expressing tobacco plants could tolerate simulated field rate sprays of glyphosate, clonal lines of several events per GAT variant were tested. A typical test was set up as follows: One clone from each event was sprayed with 1 ml of solution containing the isopropylamine salt of glyphosate (Sigma P5671) and 0.125% Triton X-100, pH 6.8 such that the amount of active ingredient sprayed was equivalent to that present in commercial glyphosate products. For example, to achieve 32 oz/acre (1×) of herbicide containing 40% active ingredient (“ai”), 2.4 ul of 40% ai formulation was diluted into 1 ml water and sprayed on a plant in a 4-inch square pot (16 in^2). A mock application (0×) with surfactant only was also included. In some cases a second spray was applied 1-4 weeks later. Plants were kept in controlled growth rooms at 25° C. and 70% humidity with 16 hr light.
Seed-grown wild type plants were also sprayed. […] All 0× plants were healthy, including the non-GAT control plants. Three weeks later all of the surviving plants were sprayed with an 8× dose.

## non-native GAT polypeptide 17-15H3 (glyphosate-N-acetyltransferase), SEQ ID NO: 601 (Bacillus licheniformis DSM 13 = ATCC 14580; E119K/E65Q/E67Q/E68K/G37R/I132T/I135V/I15L/K101R/K144R/K58Q/L145I/L26I/L97I/R47G/R92K/T33S/T89S/V114A/Y130F/Y31F)
[1]
  Km: 2.95 ± 0.162 MM
  kcat: 7.25 ± 0.188 s⁻¹
  kcat/Km: 2470 M⁻¹ s⁻¹
[2]
  Km: 60.1 ± 1.68 MM
  kcat: 4.03 ± 0.263 s⁻¹
  kcat/Km: 67.3 M⁻¹ s⁻¹
[3]
  Km: 0.251 ± 0.0041 MM
  kcat: 19.2 ± 0.46 s⁻¹
  kcat/Km: 76200 M⁻¹ s⁻¹

## non-native GAT polypeptide 25-8H7 (glyphosate-N-acetyltransferase), SEQ ID NO: 907 (Bacillus licheniformis DSM 13 = ATCC 14580; E119R/E14D/E65Q/E67K/E68K/G37R/G38S/I132T/I135V/I15L/I19V/I53V/I91V/K101R/K144R/K58Q/L105M/L106I/L145I/L26I/L36T/L97I/M75V/R47G/R92K/T33S/T89S/V114A/Y130F/Y31F/Y45F)
[1]
  Km: 4.56 ± 0.112 MM
  kcat: 11.7 ± 0.207 s⁻¹
  kcat/Km: 2570 M⁻¹ s⁻¹
[3]
  Km: 0.05 MM
  kcat: 24.7 ± 1.09 s⁻¹
  kcat/Km: 493000 M⁻¹ s⁻¹

## native GAT polypeptide 401 (glyphosate-N-acetyltransferase), wild type, SEQ ID NO: 6 (Bacillus licheniformis DSM 13 = ATCC 14580)
[1]
  Km: 6.7 MM
  kcat: 0.402 s⁻¹
  kcat/Km: 60 M⁻¹ s⁻¹
[2]
  Km: 43 MM
  kcat: 14.2 s⁻¹
  kcat/Km: 330 M⁻¹ s⁻¹
[3]
  Km: 1.27 ± 0.0144 MM
  kcat: 0.08917 ± 0.000717 s⁻¹
  kcat/Km: 70.2 M⁻¹ s⁻¹

B1: R12G1: further evolved GAT enzyme, SEQ ID NO 917 (protein)
chain: MIEVKPINAEDTYDLRHRVLRPNQPIEACMFESDLTRGAFHLGGFYGGKLISVASFHQAEHTELQGKKQYQLRGVATLEGYREQKAGSSLVKHAEEILRKRGADMIWCNARTSASGYYRKLGFSEQGEVFDTPPVGPHILMYKRIT
modifications: R12G1
[4]
  GAT activity compared with the template polypeptides: extremely high GAT activities comparable to those of the template polypeptides

B2: R12G6: further evolved GAT enzyme, SEQ ID NO:927 (protein)
chain: MIEVKPINAEDTYDLRHRVLRPNQPIEACMFDNDLTRSAFHLGGFYGGKLISVASFHQAEHSELQGKKQYQLRGVATLEGYREQKAGSSLVKHAEEILRKRGADMIWCNARTSASGYYRKLGFSEQGEVFDTPPVGPHILMYKRIT
modifications: R12G6
[4]
  GAT activity compared with the template polypeptides: extremely high GAT activities comparable to those of the template polypeptides

B3: R12G3: further evolved GAT enzyme, SEQ ID NO:921 (protein)
chain: MIEVKPINAEDTYDLRHRVLRPNQPIEACMFDNDLTRGAFHLGGFYGGKLISVASFHQAEHSELQGKKQYQLRGVATLEGYREQKAGSSLVKHAEEILRKRGADMIWCNARTSASGYYRKLGFSEQGEVFDTPPVGPHILMYKRIT
modifications: R12G3
[4]
  GAT activity compared with the template polypeptides: extremely high GAT activities comparable to those of the template polypeptides

B4: R12G7: further evolved GAT enzyme, SEQ ID NO:929 (protein)
chain: MIEVKPINAEDTYDLRHRVLRPNQPIEACMFDNDLMRGAFHLGGFHGGKLISVASFHQAEHTELQGQKQYQLRGVATLEGYREQKAGSSLVKHAEEILRKRGADMLWCNARTSASGYYRKLGFSEQGEVFDTPPVGPHILMYKRIT
modifications: R12G7
[4]
  GAT activity compared with the template polypeptides: extremely high GAT activities comparable to those of the template polypeptides

B5: R12G8: further evolved GAT enzyme, SEQ ID NO:931 (protein)
chain: MIEVKPINAEDTYDLRHRVLRPNQPIEACMFDNDLMRSAFHLGGFHGGKLISVASFHQAEHTELQGQKQYQLRGVATLEGYREQKAGSSLVKHAEEILRKRGADMLWCNARTSASGYYRKLGFSEQGEVFDTPPVGPHILMYKRIT
modifications: R12G8
[4]
  GAT activity compared with the template polypeptides: extremely high GAT activities comparable to those of the template polypeptides

B6: R12G5: further evolved GAT enzyme, SEQ ID NO:925 (protein)
chain: MIEVKPINAEDTYELRHRVLRPNQPIEACMFDSDLTRGAFHLGGFYGGKLISVASFHQAEHSELQGKKQYQLRGVATLEGYREQKAGSSLVKHAEEILRKRGADMIWCNARTSASGYYRKLGFSEQGEVFDTPPVGPHILMYKRIT
modifications: R12G5
[4]
  GAT activity compared with the template polypeptides: extremely high GAT activities comparable to those of the template polypeptides

B7: R12G2: further evolved GAT enzyme, SEQ ID NO:919 (protein)
chain: MIEVKPINAEDTYDLRHRVLRPNQPIEACMFESDLTRSAFHLGGFYGGKLISVASFHQAEHTELQGKKQYQLRGVATLEGYREQKAGSSLVKHAEEILRKRGADMIWCNARTSASGYYRKLGFSEQGEVFDTPPVGPHILMYKRIT
modifications: R12G2
[4]
  GAT activity compared with the template polypeptides: extremely high GAT activities comparable to those of the template polypeptides

B8: R12G4: further evolved GAT enzyme, SEQ ID NO:923 (protein)
chain: MIEVKPINAEDTYELRHRVLRPNQPIEACMFDSDLTRSAFHLGGFYGGKLISVASFHQAEHSELQGKKQYQLRGVATLEGYREQKAGSSLVKHAEEILRKRGADMIWCNARTSASGYYRKLGFSEQGEVFDTPPVGPHILMYKRIT
modifications: R12G4
[4]
  GAT activity compared with the template polypeptides: extremely high GAT activities comparable to those of the template polypeptides

B9: 22-13B12: GAT polypeptide, SEQ ID NO: 781 (protein)
chain: MIEVKPINAEDTYDLRHRVLRPNQPIEACMFESDLMRGAFHLGGFYGGKLISVASFHQAEHSELQGQKQYQLRGMATLEGYREQKAGSSLVKHAEEILRKRGADILWCNARTSASGYYRKLGFSEQGEVFDTPPVGPHILMYKRIT
modifications: D_S00397672_22-13B12
[5]
  Half-life: 67 h

B10: 0—5B8: evolved GAT gene, SEQ ID NO:190 (nucleic acid)
DNA: ATGATAGAGGTGAAACCGATTAACGCAGAGGATACCTATGAACTAAGGCATAAAATACTCAGACCAAACCAGCCGATAGAAGCGTGTATGTATGAAAGCGATTTACTTCGTGGTGCATTTCACTTAGGCGGCTTTTACAGGGGCAAACTGATTTCCATAGCTTCATTCCACCAGGCCGAGCACTCAGACCTCCAAGGCCAGAAACAGTACCAGCTCCGAGGTATGGCTACCTTGGAAGGTTATCGTGATCAGAAAGCGGGATCGAGTCTAATTAGACACGCTGAACAAATTCTTCGTAAGAGGGGGGCGGACTTGCTTTGGTGCAATGCGCGGACATCCGCCTCAGGCTACTACAAAAAGTTAGGCTTCAGCGAGCAGGGAGAGATATTTGATACGCCGCCAGTAGGACCTCACATCCTGATGTATAAAAGGCTCACA
modifications: Synthetic nucleic acid sequence; 0_5B8
[6]; 0.5, 2 or 4× glyphosate (1× = 32 oz/acre of 40% ai), clonally propagated events, average of 5 leaves
  outcome two weeks after glyphosate spray: survived the spraying procedure without signs of glyphosate damage
[6]; 8× glyphosate three weeks later
  outcome after second spray with an 8× dose: survived
